The supplement of paper PMC10126150
± gives the standard deviation of the averaged measurements.

Tested on: ATP
Assay: switch fluorescence ratio, 500 uM ATP over buffer (Cy3 cluster intensity, sum of 5 cycles each) (fold (ratio)); higher = stronger signal-on switching upon ATP binding; sequences stand for … in TCGTCGGCAGCGTCAGATGTGTATAAGAGACAGTTTTTTTTTTTTTTTTTTTTTTTTT…TC
Details: aptamer strand: ATP DNA aptamer (quencher-CACCTGGGGGAGTATTGCGGAGGAAGG + anchor), 100 nM annealed; ATP concentration: 500 uM
Summary of the method: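 Imaging in selection buffer was followed by imaging after 15 min with 500 uM ATP at 22 °C, for Cy3-labelled switching-strand clusters annealed to 100 nM quencher-labelled ATP aptamer on a modified Illumina MiSeq flow-cell. Five of these buffer/ATP cycles ran, separated by NaOH stripping and re-annealing. The fluorescence ratio per cluster is summed target-cycle over summed buffer-cycle Cy3 intensity, averaged per switch-domain sequence; clusters outside 100-1000 RFU were removed.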
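Further: ATP exposure 15 min at 22 °C before imaging.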

## GATATTTGA
  switch fluorescence ratio: 0.99448 ± 0.00073

## TACTGGCTGC
  switch fluorescence ratio: 1.02 ± 0.0078

## GGAAAATTTT
  switch fluorescence ratio: 0.994 ± 0.033

## AGGTTGGCTT
  switch fluorescence ratio: 0.96006 ± 0.0007

## AAAATTTGTT
  switch fluorescence ratio: 1 ± 0.015

## CTATTTTATT
  switch fluorescence ratio: 1.01 ± 0.068

## AGGTGGTTG
  switch fluorescence ratio: 0.998 ± 0.028

## AGTAGGGTGT
  switch fluorescence ratio: 0.968 ± 0.029

## ACAGGTTAGT
  switch fluorescence ratio: 0.989 ± 0.034

## AGGATGGAGG
  switch fluorescence ratio: 1.035 ± 0.0019

## ACCTGTAATA
  switch fluorescence ratio: 1.05 ± 0.0062

## TAAGGTAGGT
  switch fluorescence ratio: 0.993 ± 0.016

## TCCAGAAGGC
  switch fluorescence ratio: 1.09 ± 0.13

## GAATAATGAT
  switch fluorescence ratio: 0.989 ± 0.028

## AGTTGCTTTT
  switch fluorescence ratio: 0.993 ± 0.036

## GCTAGCAATG
  switch fluorescence ratio: 0.982 ± 0.037

## AATGGATACG
  switch fluorescence ratio: 1.05 ± 0.019

## GGAGAAATCT
  switch fluorescence ratio: 1.12 ± 0.022

## TCGTGAGGGG
  switch fluorescence ratio: 1.02 ± 0.047

## CGGGTCTAGC
  switch fluorescence ratio: 1.01 ± 0.021

## TAGACAAGAT
  switch fluorescence ratio: 1.04 ± 0.0028

## CTGGTGTGGC
  switch fluorescence ratio: 0.982 ± 0.028

## CCTCATGCCA
  switch fluorescence ratio: 2.3 ± 0.11

## GTTGGGGTGT
  switch fluorescence ratio: 1.01 ± 0.013

## TTTACAAGT
  switch fluorescence ratio: 0.982 ± 0.035

## TAATAAAAAA
  switch fluorescence ratio: 0.9772 ± 0.0069

## CCTCGGTTGG
  switch fluorescence ratio: 1.011 ± 0.0035

## AAGATTGTAA
  switch fluorescence ratio: 0.996 ± 0.03

## TTGAGTCGGA
  switch fluorescence ratio: 1.42 ± 0.7

## CTGGGAAGAG
  switch fluorescence ratio: 1.01 ± 0.028

## GAGTGGGGGG
  switch fluorescence ratio: 0.976 ± 0.043

## CATGAAAAAT
  switch fluorescence ratio: 1 ± 0.011

## TAACAGTAGG
  switch fluorescence ratio: 1.05 ± 0.038

## TGGGGTTAAT
  switch fluorescence ratio: 0.997 ± 0.028

## TTAGGGGTCG
  switch fluorescence ratio: 1 ± 0.041

## TTTTATTCAG
  switch fluorescence ratio: 1 ± 0.03

## GGTTGGCGTT
  switch fluorescence ratio: 0.961 ± 0.03

## CGACCATTAA
  switch fluorescence ratio: 1.264 ± 0.0043

## ATCATTGAGA
  switch fluorescence ratio: 0.9972 ± 0.0043

## GTGCGACGTT
  switch fluorescence ratio: 0.965 ± 0.08

## TTTGGCCAAG
  switch fluorescence ratio: 0.996 ± 0.029

## TTGGAATTTT
  switch fluorescence ratio: 1.03 ± 0.031

## TACGATACAC
  switch fluorescence ratio: 1.44 ± 0.075

## TAGGGACAGG
  switch fluorescence ratio: 0.99 ± 0.038

## TTTTGGAAGA
  switch fluorescence ratio: 0.983 ± 0.039

## TGGGAGTATA
  switch fluorescence ratio: 1 ± 0.032

## CGCTTGGTAC
  switch fluorescence ratio: 3.39 ± 0.079

## GGGATTTGTA
  switch fluorescence ratio: 1.02 ± 0.017

## AGGATATGGC
  switch fluorescence ratio: 1.09 ± 0.12

## GAGTTGTCTT
  switch fluorescence ratio: 0.9538 ± 0.0062

## GGGTATATGT
  switch fluorescence ratio: 1 ± 0.014

## GGCTAGTGAC
  switch fluorescence ratio: 1 ± 0.03

## TTTCAGTATG
  switch fluorescence ratio: 1.02 ± 0.023

## GATGCTTGTG
  switch fluorescence ratio: 0.978 ± 0.011

## AAGGAATTGT
  switch fluorescence ratio: 0.9729 ± 0.0085

## TCAATCGGGT
  switch fluorescence ratio: 0.995 ± 0.053

## CCTGATAATT
  switch fluorescence ratio: 1.02 ± 0.02

## CAAATTTTCT
  switch fluorescence ratio: 0.978 ± 0.025

## TCGGTCGCGG
  switch fluorescence ratio: 0.974 ± 0.028

## GGCTGGAAAC
  switch fluorescence ratio: 1.23 ± 0.22

## TGGGGTTCAG
  switch fluorescence ratio: 1.01 ± 0.019

## CGCACGGTAG
  switch fluorescence ratio: 1.05 ± 0.032

## AGGTTGTGTC
  switch fluorescence ratio: 0.979 ± 0.047

## TGGGTGCCGG
  switch fluorescence ratio: 0.929 ± 0.11

## GGTTTACGTC
  switch fluorescence ratio: 0.9998 ± 0.0082

## ATATTATTCT
  switch fluorescence ratio: 1.005 ± 0.0096

## TTTCTTTTGG
  switch fluorescence ratio: 1.1 ± 0.09

## ATGGGAGCTT
  switch fluorescence ratio: 1.01 ± 0.025

## CGACTGGCTG
  switch fluorescence ratio: 1.01 ± 0.049

## CCGGTTACAG
  switch fluorescence ratio: 1.07 ± 0.0078

## AAGGTAGGGT
  switch fluorescence ratio: 1.025 ± 0.0034

## AATGGTATGG
  switch fluorescence ratio: 0.982 ± 0.024

## GCTGGAAGTA
  switch fluorescence ratio: 0.97 ± 0.046

## TCTAGCAACG
  switch fluorescence ratio: 1.01 ± 0.032

## TACGAATGAG
  switch fluorescence ratio: 0.9854 ± 0.0057

## GCTCTGAGGG
  switch fluorescence ratio: 1.056 ± 0.009

## GCTGGTAGTT
  switch fluorescence ratio: 0.995 ± 0.028

## GCGGGAGTTT
  switch fluorescence ratio: 0.9667 ± 0.0015

## GACTTAGTGT
  switch fluorescence ratio: 1.012 ± 0.0036

## AATTGGTGCA
  switch fluorescence ratio: 0.96 ± 0.011

## CATGAGAAGA
  switch fluorescence ratio: 0.999 ± 0.029

## ACTGGGTTGG
  switch fluorescence ratio: 0.9922 ± 0.0074

## TGAATAGGAG
  switch fluorescence ratio: 1.011 ± 0.0027

## CAAGTGGCAC
  switch fluorescence ratio: 0.977 ± 0.022

## GAGGGTTTTG
  switch fluorescence ratio: 0.9768 ± 0.0092

## TTCCGGGTGT
  switch fluorescence ratio: 1.66 ± 0.75

## CCGTTGCTTT
  switch fluorescence ratio: 1.35 ± 0.14

## TTTGAGTGTT
  switch fluorescence ratio: 0.985 ± 0.011

## TGGGATAGTG
  switch fluorescence ratio: 1 ± 0.046

## AGAGCACAGG
  switch fluorescence ratio: 1.09 ± 0.018

## CTTTTGCGCA
  switch fluorescence ratio: 1.007 ± 0.0079

## TGGTCTGCCC
  switch fluorescence ratio: 0.975 ± 0.053

## GGGTAAGGGG
  switch fluorescence ratio: 1.05 ± 0.098

## CGGAGAATAG
  switch fluorescence ratio: 1.234 ± 0.012

## CATTCGTTTG
  switch fluorescence ratio: 0.96 ± 0.0097

## TAAAAGTTGG
  switch fluorescence ratio: 0.985 ± 0.029

## GGACGGGGGT
  switch fluorescence ratio: 1.01 ± 0.038

## GGGCTGTTGC
  switch fluorescence ratio: 1.08 ± 0.13

## GTAATTTTTC
  switch fluorescence ratio: 1.01 ± 0.053

## AATCGTGTAG
  switch fluorescence ratio: 1.04 ± 0.025

## GAAGGGAAAG
  switch fluorescence ratio: 1.02 ± 0.012

## TTTACGAAAG
  switch fluorescence ratio: 1.04 ± 0.044

## TTCTAGGGCA
  switch fluorescence ratio: 1.02 ± 0.038

## TAGCCGACGG
  switch fluorescence ratio: 1.03 ± 0.058

## CGTAGGGGTT
  switch fluorescence ratio: 0.989 ± 0.028

## TTGGCACGAT
  switch fluorescence ratio: 1.012 ± 0.0011

## CAGGTCTTAT
  switch fluorescence ratio: 1.01 ± 0.028

## TATCGTACAT
  switch fluorescence ratio: 1.11 ± 0.023

## TCTATTCGGG
  switch fluorescence ratio: 0.9484 ± 0.0029

## TTAGCCTAGT
  switch fluorescence ratio: 0.965 ± 0.037

## CATTGTAAGT
  switch fluorescence ratio: 1 ± 0.025

## AGGGTCTAGA
  switch fluorescence ratio: 0.978 ± 0.023

## ACGGCATTAT
  switch fluorescence ratio: 1.164 ± 0.0042

## TGGCAGAGGG
  switch fluorescence ratio: 1 ± 0.044

## TTTTTTTCCT
  switch fluorescence ratio: 1.02 ± 0.066

## CGCGCGGTTT
  switch fluorescence ratio: 1.02 ± 0.041

## TAAACGGGAC
  switch fluorescence ratio: 1.11 ± 0.019

## GCAGTACGGC
  switch fluorescence ratio: 1.05 ± 0.033

## CAAAGGCAGG
  switch fluorescence ratio: 1.004 ± 0.0065

## GGGGCTATCC
  switch fluorescence ratio: 1.01 ± 0.036

## CTCTGGGGCG
  switch fluorescence ratio: 1.01 ± 0.023

## ACGGCGAGGT
  switch fluorescence ratio: 1.03 ± 0.032

## CCCCGTAGTC
  switch fluorescence ratio: 4.6 ± 0.3

## ACGGCGAGAG
  switch fluorescence ratio: 1.06 ± 0.03

## CGTGTCACTT
  switch fluorescence ratio: 1.01 ± 0.023

## GCGATGTTTG
  switch fluorescence ratio: 0.998 ± 0.023

## TGGTGGGTTC
  switch fluorescence ratio: 1.03 ± 0.067

## ACACTAATCT
  switch fluorescence ratio: 1.16 ± 0.15

## AATAAGGTA
  switch fluorescence ratio: 0.995 ± 0.022

## AAATAAAATG
  switch fluorescence ratio: 0.932 ± 0.11

## TATAGACAGG
  switch fluorescence ratio: 0.989 ± 0.057

## ATTGTACAGG
  switch fluorescence ratio: 1.033 ± 0.0021

## ATTTGTTTCT
  switch fluorescence ratio: 0.9993 ± 0.0079

## AGGGGGCGAT
  switch fluorescence ratio: 1.01 ± 0.039

## ATGTGGGAGG
  switch fluorescence ratio: 1 ± 0.016

## GGGTGATGGT
  switch fluorescence ratio: 0.964 ± 0.053

## CTCAGGGGAG
  switch fluorescence ratio: 1.03 ± 0.047

## TATTAACCTG
  switch fluorescence ratio: 1.03 ± 0.022

## GAGTTGGGGT
  switch fluorescence ratio: 0.986 ± 0.018

## GTGAGGCGGT
  switch fluorescence ratio: 0.968 ± 0.017

## ATTTTAATGC
  switch fluorescence ratio: 1.018 ± 0.0019

## GTGGAGGGGA
  switch fluorescence ratio: 1.01 ± 0.043

## CCCCTTGTGA
  switch fluorescence ratio: 1.72 ± 0.04

## GCGTTGTGTG
  switch fluorescence ratio: 1.02 ± 0.027

## GCGCGCGTTC
  switch fluorescence ratio: 1.03 ± 0.045

## TTTTTCATGG
  switch fluorescence ratio: 1 ± 0.031

## CTCGTCAGGG
  switch fluorescence ratio: 0.995 ± 0.029

## CCGGGAAATT
  switch fluorescence ratio: 1.22 ± 0.36

## CTTAAAGTCG
  switch fluorescence ratio: 0.981 ± 0.0073

## TTAGTTACGA
  switch fluorescence ratio: 1.04 ± 0.014

## TAGAAGTAGG
  switch fluorescence ratio: 1.01 ± 0.037

## TTAACGGAGA
  switch fluorescence ratio: 1.039 ± 0.0084

## TTTTGGCCAG
  switch fluorescence ratio: 0.991 ± 0.061

## TTTTATCTTG
  switch fluorescence ratio: 1.03 ± 0.017

## TAGTAAATGG
  switch fluorescence ratio: 0.999 ± 0.017

## GCGGGGGCAT
  switch fluorescence ratio: 0.964 ± 0.012

## ATGGCACTGG
  switch fluorescence ratio: 1.07 ± 0.013
